Measurements from patent US20200354427A1 (Eli Lilly, published 2020).
Each block holds one molecule with its values, some of them ahead of it.

What was measured:
[1] = target: PTH receptor (PTHR1 receptor) endogenously expressed by rat osteosarcoma UMR-106 cells (rat) (UniProt P25961); experiment: cell-based or functional assay
[2] = target: T1, human RANKL (receptor activator of nuclear factor kappa-B ligand) (human, UniProt O14788 140-317, limits assumed); experiment: cell-based or functional assay
T1 sequence (looked up): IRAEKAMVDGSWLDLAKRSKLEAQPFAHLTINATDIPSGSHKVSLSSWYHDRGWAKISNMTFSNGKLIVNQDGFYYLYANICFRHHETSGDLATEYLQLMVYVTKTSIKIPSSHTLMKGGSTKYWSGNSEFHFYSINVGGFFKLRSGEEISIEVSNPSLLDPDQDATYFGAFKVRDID

PTH receptor (PTHR1 receptor) endogenously expressed by rat osteosarcoma UMR-106 cells (rat), sequence (P25961 27-591): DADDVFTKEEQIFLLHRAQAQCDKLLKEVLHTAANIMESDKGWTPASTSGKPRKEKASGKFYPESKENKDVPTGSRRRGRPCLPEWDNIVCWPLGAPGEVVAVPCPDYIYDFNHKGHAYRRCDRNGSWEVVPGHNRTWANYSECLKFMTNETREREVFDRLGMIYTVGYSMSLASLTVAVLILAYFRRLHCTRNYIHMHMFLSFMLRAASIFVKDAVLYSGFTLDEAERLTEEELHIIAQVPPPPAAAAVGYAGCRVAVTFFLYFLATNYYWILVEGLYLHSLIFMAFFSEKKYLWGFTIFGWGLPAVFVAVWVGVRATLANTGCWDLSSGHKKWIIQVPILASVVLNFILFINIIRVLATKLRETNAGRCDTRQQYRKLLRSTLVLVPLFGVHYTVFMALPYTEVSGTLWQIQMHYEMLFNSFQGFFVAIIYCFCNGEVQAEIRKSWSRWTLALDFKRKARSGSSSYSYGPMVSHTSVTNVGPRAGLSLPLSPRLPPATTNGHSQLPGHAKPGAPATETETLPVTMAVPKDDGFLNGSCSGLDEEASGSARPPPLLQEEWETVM

EC50 (nM); PTHR1 activation, CRE-regulated luciferase luminescence in UMR-106 cells [1]: 5.6 nM
Molecule: PTH peptide (a 38 amino acid parathyroid hormone peptide)

IC50 (nM) hRANKL; neutralization of RANKL-induced NF-kB driven luciferase luminescence [2]: 0.069 nM
B1: RANKL neutralizing antibody (an IgG4 RANKL mAb having the same HC and LC amino acid sequences as the mAb portion of the exemplified fusion compound) (antibody, V domains shown)
VH: QVQLVQSGAEVKKPGSSVKVSCKASGYAFTNYYIEWVRQAPGQGLEWMGVINPGWGDTNYNEKFKGRVTITADKSTSTAYMELSSLRSEDTAVYYCARRDTAHGYYALDPWGQGTTVTVSS
VL: DIQMTQSPSSLSASVGDRVTITCKASQNVGTNVAWYQQKPGKAPKLLIYSASYRYSGVPSRFSGSGSGTDFTLTISSLQPEDFATYYCQQYWDYPLTFGGGTKVEIKR
